The Kd is the free concentration of one partner at which half of the binding sites on the other are occupied at equilibrium, for simple one-to-one binding. Read a high Kd as a looser complex.

Read-outs that look alike come from different tables or passages of the source.

We go through four molecules from patent US20240270828A1 (UAB RESEARCH FOUNDATION, published 2024).

In experiment [1] the target is SARS-CoV-2 Spike protein (SARS-CoV-2, UniProt P0DTC2 16-1211). The experiment can be described thus: SPR, hmAb captured, SARS-CoV-2 Spike injected, 1:1 fit.
Experiment [2] concerns the target T1, SARS-CoV-2 Spike protein (SARS-CoV-2, UniProt P0DTC2 16-1211). The experiment can be described thus: BLI, mAb on anti-human Fc biosensor, SARS-CoV-2 Spike in solution.
Experiment [3] concerns the target T1, SARS-CoV-2 Spike protein. Description: SPR/BLI, method not told apart.
In experiment [4] the target is T1, SARS-CoV-2 Spike protein.
The target of experiment [5] is T2, SARS-CoV-2 Omicron Spike protein (SARS-CoV-2 Omicron, UniProt P0DTC2 16-1213).
Experiment [6] deals with T2, SARS-CoV-2 Omicron Spike protein. Description: BLI, mAb on anti-human Fc biosensors.
The target of a further experiment is T3, NL63 Spike protein (HCoV-NL63, UniProt Q6Q1S2 19-1296).
T3 sequence: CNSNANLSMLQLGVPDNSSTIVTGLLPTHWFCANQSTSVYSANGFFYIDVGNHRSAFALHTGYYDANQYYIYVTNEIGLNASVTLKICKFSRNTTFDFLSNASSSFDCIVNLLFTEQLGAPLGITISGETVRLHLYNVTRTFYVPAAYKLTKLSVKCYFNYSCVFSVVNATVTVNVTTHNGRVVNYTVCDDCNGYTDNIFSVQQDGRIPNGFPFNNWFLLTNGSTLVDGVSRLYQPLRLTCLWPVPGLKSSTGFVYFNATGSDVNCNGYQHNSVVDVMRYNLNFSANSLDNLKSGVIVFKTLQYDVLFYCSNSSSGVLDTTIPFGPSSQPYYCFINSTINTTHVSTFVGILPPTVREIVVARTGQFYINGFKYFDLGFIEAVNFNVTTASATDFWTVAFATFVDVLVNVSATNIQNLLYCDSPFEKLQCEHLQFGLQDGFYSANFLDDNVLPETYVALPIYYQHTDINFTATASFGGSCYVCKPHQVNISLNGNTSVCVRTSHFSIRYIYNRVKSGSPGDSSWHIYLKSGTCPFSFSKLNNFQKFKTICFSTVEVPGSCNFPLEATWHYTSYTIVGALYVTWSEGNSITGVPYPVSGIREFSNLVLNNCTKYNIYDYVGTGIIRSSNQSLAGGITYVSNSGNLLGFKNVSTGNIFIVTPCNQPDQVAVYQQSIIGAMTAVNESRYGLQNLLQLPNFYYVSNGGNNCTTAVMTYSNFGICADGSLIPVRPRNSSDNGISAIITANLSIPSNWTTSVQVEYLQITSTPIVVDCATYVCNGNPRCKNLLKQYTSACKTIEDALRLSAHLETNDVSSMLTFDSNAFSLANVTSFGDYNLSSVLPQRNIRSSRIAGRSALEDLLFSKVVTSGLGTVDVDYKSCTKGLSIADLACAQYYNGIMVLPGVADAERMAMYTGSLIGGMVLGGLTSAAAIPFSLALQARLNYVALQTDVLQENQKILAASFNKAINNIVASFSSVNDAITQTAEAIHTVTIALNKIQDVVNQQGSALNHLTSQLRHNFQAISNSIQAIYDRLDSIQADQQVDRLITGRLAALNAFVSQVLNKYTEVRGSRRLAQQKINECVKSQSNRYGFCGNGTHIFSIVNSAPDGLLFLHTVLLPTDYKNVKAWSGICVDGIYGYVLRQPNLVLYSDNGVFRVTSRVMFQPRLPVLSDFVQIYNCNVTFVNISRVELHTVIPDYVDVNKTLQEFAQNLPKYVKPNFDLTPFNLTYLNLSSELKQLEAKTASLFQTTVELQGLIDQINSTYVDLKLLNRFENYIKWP
The experiment can be described thus: ELISA titration of 1249A8 on coated Spike proteins, mean Abs at 450 nm. For orientation: In an ELISA, binding on a coated surface is turned into a signal by an enzyme label.

In a further experiment the target is T4, 229E Spike protein (HCoV-229E, UniProt P15423 16-1115).
T4 sequence: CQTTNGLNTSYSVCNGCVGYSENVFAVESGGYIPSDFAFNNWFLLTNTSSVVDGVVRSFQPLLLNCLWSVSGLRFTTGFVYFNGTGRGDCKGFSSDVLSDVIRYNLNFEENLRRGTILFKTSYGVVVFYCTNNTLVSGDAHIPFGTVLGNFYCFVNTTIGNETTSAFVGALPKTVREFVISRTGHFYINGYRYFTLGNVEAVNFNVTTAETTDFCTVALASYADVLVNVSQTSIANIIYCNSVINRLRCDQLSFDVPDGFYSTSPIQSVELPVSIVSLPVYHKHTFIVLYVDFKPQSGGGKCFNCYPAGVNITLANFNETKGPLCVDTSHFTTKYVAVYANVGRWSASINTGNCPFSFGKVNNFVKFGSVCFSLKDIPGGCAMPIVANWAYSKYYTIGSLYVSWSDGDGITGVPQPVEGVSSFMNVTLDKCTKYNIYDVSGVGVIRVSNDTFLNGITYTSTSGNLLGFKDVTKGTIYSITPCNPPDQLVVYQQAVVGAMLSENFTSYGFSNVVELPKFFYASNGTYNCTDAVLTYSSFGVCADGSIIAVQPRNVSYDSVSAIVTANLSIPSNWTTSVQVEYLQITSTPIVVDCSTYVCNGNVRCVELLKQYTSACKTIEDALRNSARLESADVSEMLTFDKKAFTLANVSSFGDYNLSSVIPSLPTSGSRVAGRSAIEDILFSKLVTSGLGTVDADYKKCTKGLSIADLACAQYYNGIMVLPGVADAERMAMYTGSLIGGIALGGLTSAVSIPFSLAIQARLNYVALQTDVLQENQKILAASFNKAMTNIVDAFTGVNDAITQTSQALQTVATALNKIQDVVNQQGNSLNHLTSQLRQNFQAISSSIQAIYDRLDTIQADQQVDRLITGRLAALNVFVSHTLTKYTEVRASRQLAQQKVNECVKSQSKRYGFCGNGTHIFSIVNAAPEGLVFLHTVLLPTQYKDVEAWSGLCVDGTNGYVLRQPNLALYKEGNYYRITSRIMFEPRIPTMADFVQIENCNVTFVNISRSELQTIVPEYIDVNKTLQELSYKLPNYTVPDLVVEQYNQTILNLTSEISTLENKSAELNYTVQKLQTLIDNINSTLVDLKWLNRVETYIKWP
Described as above.

B1: CC40.8 (antibody, V domains shown)
VH: EVQLLESGGGLVQPGGSLRLSCAASGFTFSSYVMTWARQAPGKGLEWVSAISGTGYTYYADSVKGRFTVSRDNSKNTLFLQMSSLRAEDTAVYYCAITMAPVVWGQGTTVTVSS
VL: SYELTQPPSVSVSPGQTARITCSGDALPKRYAYWYQQKSGQAPILVIYEDKKRPSGIPERLSGSKSGTVATLTISGAQVEDEADYYCYSTDSSGNHAVFGGGTQLTVL
Turning to B1, in the experiment with SARS-CoV-2 Spike protein [1], binding was characterised by a dissociation constant (Kd) of 1.6 nM.

B2: S2P6 (antibody, V domains shown)
VH: EVQLVQSGAEVKKPGASVKVSCKASGYTFTSQYMHWVRQAPGQGLEWIGIINPSGVHTSYAQKFQGRVTLTRDTSTSTLYMELSSLRSEDTAVYYCARGSPKGAFDYWGQGTLVTVSS
VL: not shown
In the experiment with SARS-CoV-2 Spike protein [1], B2 yielded a Kd of 9.7 nM.

B3: 1249A8 (antibody, V domains shown)
VH: QVQLVQSGAEVKKPGASMKVSCKASGFTFTDYYMHWVRQAPRQGLEWMGLINPSGSGTAYAQNFQGRVTLARDTSTSTLYMEMGSLTSDDTAVYYCARMDSSGSYDHWGQGTLVTVSS
VL: ETTLTQSPGTLSLSPGDRATLSCRASQTIRISYLAWYQQKPGQAPRLLVYGPSIRATGIPDRFSARGSGTDFTLTISRLEPEDFAVYYCQHYGSSPPRYTFGQGTKLEIK
B3: the Kd with SARS-CoV-2 Spike protein [2] is 2.85 nM; with SARS-CoV-2 Spike protein [3] it was 1.8 nM; in the experiment with SARS-CoV-2 Spike protein [4] it was 1.22 nM; in experiment [5], 0.517 nM; in experiment [6], 0.52 nM. Further, the binding result in the experiment with NL63 Spike protein and with 229E Spike protein was “no binding (tested: about 1000 ng/ml)” throughout.

B4: CV3-25 (antibody, V domains shown)
VH: QVQLVESGAEVKKPGESLKISCKGSGYTFTRYWIGWVRQMPGKGLEWMGIIYPGDSDTRYSPSFQGHVTISADKSISTAYLQWNSLKASDTAMYYCARLPQYCSNGVCQRWFDPWGQGTLVTVSS
VL: EIVLTQSPSSVSASVGDRVTITCRASQGISSWLAWYQQKPGKAPKLLIYAASSLQSGVPSRFSGSGSGTDFTLTISSLQPEDFATYYCQQGNSFPYTFGQGTNLEIK
The molecule B4 had a dissociation constant (Kd) in the experiment with SARS-CoV-2 Spike protein [1] of 2.5 nM.
